According to a protein production outcome set (Wang et al. 2014):

Experiment: label from the status in PepcDB records

Sequence	protein production
MAASSQAPEAKGFRWKLIAPLVVWLAIYLWPVPSGLNVNQWHYFAVFAAVITGLILESMPVGAVGLIGLTVAGVGGYIDPDPTKSLRWMLAGFAESTVWLIVGAFVFSIGYRKSQLGRRIALVLVQKLGSNTLGLGYAVAMSDFLLAPATPSNTARSGGIVYPIISNIPRIYGSEPGPTAGRIGTYVMWTAFAATAVTSSLFFTALAPNAAALAIAKKTVGVEVSWGQWFIGFAPLGILLMILVPLLSYPVCRPEVKRSPEIAEWAAKELSEMGPMSRNEWIMLALIVLAMFLWIAGSSPDINVPLLGSNFVNATTVVFIVISLMLVTGVIEFADIVSEKSAWEVFFYFTSLLTLASGLNEIGFIKWFATEYAKPLAGLSPSTAMILLVALFFWIHYFFSSITSHAAAVLPVVLAVGSGIPGLPVTTLAMLCMYSLGLMGVISPYATGPAPMYFGSGYIGKGQFWGFGLIFGLLYFAGLLLIVLPWLQVR	failed
MAASTSSSSSSSSSSLSSPSPCTWRYMTFTSFHGPDVRNTFLSHLRKQFNTNGITMFDDQRMERSQTLAPTLTQAIRESKIYIVLLSKNYASSSWCLDELLEILNCKEKRGQRVMTIFYGVNPSDVRKQTGEFGIAFNETCARKTEEERRKWSHALTCVGNITGVHVQDRDDEANMIEKIATDVSEKLNATESKDFDEMVGIKAHLTKIESLLSLDYDKVKIVGISGPAGIGKSTIARALHNLLSSSFHLSCFMENLISQSNPHSSLEYSSKLSLQEQLLSQVLNEKDIRIRHLGAIQERLHDQRVLIILDDVTSLEQLEVLANIKWYGPGSRIIVITKKKDILVQHGICDIYHVGFPTDADALKIFCLSAYRQTSPPDGSMKIHECEMFIKICGNLPLHLHVLGSALRGRSYGRVQSLCNLVSLADFV	failed
MAAVWQQVLAVDARYNAYRTPTFPQFRTQYIRRRSQLLRENAKAGHPPALRRQYLRLRGQLLGQRYGPLSEPGSARAYSNSIVRSSRTTLDRMEDFEDDPRALGARGHRRSVSRGSYQLQAQMNRAVYEDRPPGSVVPTSAAEASRAMAGDTSLSENYAFAGMYHVFDQHVDEAVPRVRFANDDRHRLACCSLDGSISLCQLVPAPPTVLRVLRGHTRGVSDFAWSLSNDILVSTSLDATMRIWASEDGRCIREIPDPDSAELLCCTFQPVNNNLTVVGNAKHNVHVMNISTGKKVKGGSSKLTGRVLALSFDAPGRLLWAGDDRGSVFSFLFDMATGKLTKAKRLVVHEGSPVTSISARSWVSREARDPSLLINACLNKLLLYRVVDNEGTLQLKRSFPIEQSSHPVRSIFCPLMSFRQGACVVTGSEDMCVHFFDVERAAKAAVNKLQGHSAPVLDVSFNCDESLLASSDASGMVIVWRREQK	failed
MAAWCSPRWLRVAVGTPRLPAAAGRGVQQPQGGVVAASLCRKLCVSAFGLSMGAHGPRALLTLRPGVRLTGTKSFPFVCTASFHTSASLAKDDYYQILGVPRNASQKDIKKAYYQLAKKYHPDTNKDDPKAKEKFSQLAEAYEVLSDEVKRKQYDAYGSAGFDPGASSSGQGYWRGGPSVDPEELFRKIFGEFSSSPFGDFQNVFDQPQEYIMELTFNQAAKGVNKEFTVNIMDTCERCDGKGNEPGTKVQHCHYCSGSGMETINTGPFVMRSTCRRCGGRGSIITNPCVVCRGAGQAKQKKRVTVPVPAGVEDGQTVRMPVGKREIFVTFRVQKSPVFRRDGADIHSDLFISIAQAILGGTAKAQGLYETINVTIPAGIQTDQKIRLTGKGIPRINSYGYGDHYIHIKIRVPKRLSSRQQNLILSYAEDETDVEGTVNGVTHTSTGGRTMDSSTGSKDRREAGEDNEGFLSKLKKIFTS	failed
MAAWRAEARRLAQAGVPAESVVWRVGAGEADLFADLPALPAGPARQIRLSREAVGSLETALCHADPERFGRAYGLLLRLADGTLRWGDRSDPALRKLLAQEKMVRREIHKMHAFVRFRELPSEGPRRAFAAWFEPDHPVEEAATPFFARRFGDMDWAIVTPEVTARFVAGQLDFALTEERTAPPADGTEELWRTYYANIFNPARLMVKAMQSEMPKRYWKNLPEAELIPGLIRGAAERAAEMQAAAPTEPPARTAAVARQRAAAAGGPAAAGDGSAPGTLAEAKTAAEGCRRCGLWANATQVVFGEGPATARMMIVGEQPGDREDLAGRPFVGPAGQLFDEEAAAAGLDRGSVYVTNAVKHFKFAPRGKRRIHQKPDAGEVTACRWWLDLERDLVRPRLIVAMGATALASLTGSGAGILKRRGSVERLDDGTPVFVTVHPSYILRLPDEAARVEERRRFRDDLQAARQLLERLD	failed
MAAYQVLIVGAGFSGAETAFWLAQKGVRVGLLTQSLDAVMMPFLPPKPPFPPGSLLERAYDPKDERVWAFHARAKYLLEGLRPLHLFQATATGLLLEGNRVVGVRTWEGPPARGEKVVLAVGSFLGARLFLGGVVEEAGRLSEASYPDLLEDLSRLGFRFVEREGEVPETPSTPGYRVRYLAFHPEEWEEKTFRLKRLEGLYAVGLCVREGDYARMSEEGKRLAEHLLHELG	not failed
MACARAWRTMSPCGGKQVHPLQECGLCSAPAGVARTHARQGADPMLPELGTFLLVLALLVALVQAVVPLAGAQRGRSSWMAVARPAAMVQLALIASAFAVLTHAFLVQDFSVRYVAENSNSLLPMMYRYSAVWGAHEGSLLLWTLVLALWTGAVAIWSRQLPAHVIARVLGVMALVSIGFLAFLLFTSNPFARLFPVPLEGGDLNPLLQDPGLIVHPPMLYCGYVGFAVPFAFAIAALLEGRMDARWLRWTRPWTNVAWSMLTVGIALGSWWAYYELGWGGWWFWDPVENASFMPWLVGTALLHSQAVTEKRGSFASWTLLLAIAAFALSLLGTFLVRSGVLTSVHSFAADPSRGLFILVFLLLVVGGSLVLYALRAPRLSLVDDPRRAFAGSSRETLLLLNNLLLTCACAMVLLGTLYPLLADALGLGKLSVGPPYFGTLFVVLMAPLVALVPFGPLTRWQREQASRPLAMLAPWAGLALAAGVLAWFAAPQGQLKAAVGVAGAAWVLLGTARFLWTRRAAKGRKFTPEMLGMVLAHLGVAVFLSGALLVEGLSLQREVALAPGQQVQIGRYALHFDGLEELRGPNYVSDRANLQVLKDDAPVGVVHAEKRRYASGGQTLTEAAIRPGPFGDLYVALGEPLGNQAWAVRVHLKPFVRWIWLGALLMALGGLVTAADRRFRRSPEIQDG	failed
MACEGAPEVRIGRKPVMNYVLAILTTLMEQGTNQVVVKARGRNINRAVDAVEIVRKRFAKNIEIKDIKIDSQEIEVQTPEGQTRTRRVSSIEICLEKAGESA	not failed
MACEGRTMISDTYKVRVNLGLCALAAAITLAGCAGLPDQRLANEALKRGDTALAERNYKALADLGYSEAQVGLADIKVATRDPSQIKEAEATYRAAAATSPRAQARLGRLLVAKPDSTQAEREEAETLLKQAAKQGQSNTLIPLAMLYLSYPQSFPKVNAQQQIDQWRAAGNPEAGLAQVLLYRTQGTYDQHLGEVEKICKAALNTTDICYVELATVYQKRGQADQQAALLGQLKSAYARGAVPATRVDSVARVLADRSLGQTDEKTAKELLEQVAPANPASWVSLAQLVYDFPELGDTDQLMAYIDKGREAEQPRAELLLGRLYYEGKTLPADAQKAEQHLQAAAEAGEISAHYYLGQLYRRGYLGNVEPQKAVDHLLAAARGGQNSADYALAQLFSEGHGIRPQPGNAWVFAQLSQANPTPQSAELLQQLDQQLTPDQRNQAQQLLDQEKRARGSLAQGANSTLALEALQDDEKEVDGEDSL	failed
MACFSDLSKECDMEGCRNHDFLPYKCEYCKLIFCEFHRNAEEHLCSKLKDMELNTVVLCEYCGIVLPDKKEDIQNHLIYKCLYKKKTKSILMCNKRDCKKVLNGINNYICKKCRKSFCLPHRYSDVHNCIKSDEEKSFFKSNIKKNKYILKVTTDGFINTTTHFFNSHTYIVC	failed
MACTVDFRCLDEGFGGKTYKRKRESQEQAAAEAIADEASMDIDGAPPAAKRSAVASSENPDKPIALAVERPTYDGVIAGKVSGRNWKQPRTHRSSGRFVKNRKPDLEEMKRQREIKKAYKERVNELKEEIRSNKVEKRKKKEEREKRKKENVLRTGTKLQKITNPKTLKKISMSKKQRKQLKKIPDEMLSGGSKKSITN	not failed
MADADLVMTGTVLTVDDARPTAEAIAVADGRVIAVGDRSEVAGLVGANTRVIDLGAGCVMPGFVEAHGHPLLEAVVLSDRFVDIRPVTMRDADDVVAAIRGEVARRGPAGAYLVGWDPLLQSGLGEPTLTWLDSLAPNGPLVIIHNSGHKAYFNSHAAWLNGLTRDTADPKGAKYGRDGNGELDGTAEEIGAILPLLAGVADPSNFGAMLRAECARLNRAGLTTCSEMAFDPGYRPMVEAVRAELTVRLCTYEISNARMCTDATPGQGDDMLRQVGIKIWVDGSPWVGNIDLTFPYLDTPATRAIGVPPGSRGCANYTREQLAEIVGAYFPRGWQIACHVHGDGGVDTILDVYEEALRRNPRDDHRLRLEHVGAIRPDQLRRAAELGVTCSIFVDQIHYWGDVIVDDLFGAQRGSRWMPAGSAVAAGMRISLHNDPPVTPEEPLRNISVAATRVAPSGRVLAPEERLTVEQAIRAQTIDAAWQLFAEDAIGSLQVGKYADMVVLSADPRTVPPEQIADLAVRATFLAGRQVYRRLEHHHHHH	failed
MADATRIPDSVTLPELTLRGVLLGALITVIFTASNVFLGLKVGLTFSSAIPAAVISMSVLRMFRDANILENNMVQTQASAAGTLSAIIFILPALVMMGHWQGFPFWQTLAICGAGGMLGVMFTIPLRHIMVVQSDLPYPEGVAAAEILRVGSAEAPDTAPGRRGASGMGDILAGGGVAALVSLATGGLRVLGDSFSWWGQLGASVFRLPMGFSLALLGAGYLIGIVAGVAMLVGLLIAWLVAVPVLTATTPMPDGQSISAFANSLWASQVRFIGAGVIGVGAIWTLATLFMPMVRGVRTSFAAFGRSGEAAYGSAPRTERDLPSRWISLITLALVAVLVGVFAAFLQPAVLSPGARWGLVAYAVVFAFVFGFLVAAACGYMAGLIGSSTSPISGVGIVAIVLVSLLMLAIQRGDGLLATPQGLQMGIALAIFTTSAVVAVASISNDNLQDLKTGWLVGATPWRQQVALLIGCVVGAAVISPVLELLYNAYGFGDALPRPGMDPSQALAAPQATLMLAIAQGIFTHQLNWTMILIGMGVGVALIVIDQVLRRTCRVARLPVLAVGIGIYLPPSASAPIVVGAVLAWLLEGALRRRAAAAGQDYERYAEGPNRRGVLVASGLIVGESLVGVLLAAVIGATGDEAPLAVVGAGFGPTAEWLGFVVFAAVAVWIYRRVVRTRPEQA	failed
MADDDVLFEDVYELCEVIGKGPFSVVRRCINRETGQQFAVKIVDVAKFTSSPGLSTEDLKREASICHMLKHPHIVELLETYSSDGMLYMVFEFMDGADLCFEIVKRADAGFVYSEAVASHYMRQILEALRYCHDNNIIHRDVKPHCVLLASKENSAPVKLGGFGVAIQLGESGLVAGGRVGTPHFMAPEVVKREPYGKPVDVWGCGVILFILLSGCLPFYGTKERLFEGIIKGKYKMNPRQWSHISESAKDLVRRMLMLDPAERITVYEALNHPWLKERDRYAYKIHLPETVEQLRKFNARRKLKGAVLAAVSSHKFNSFYGDPPEELPDFSEDPTSS	failed
MADDQGRGRRRPLNEDDSSTSRGSGDGPRVKVFRGSSSGDPRADPRIEASRERRALEEAPRREGGPTERKPWGDQYDYLNTRPAELVSKKGTDGVPVMLQTNFFRLKTKPEWRIVHYHVEFEPSIENPRVRMGVLSNHANLLGSGYLFDGLQLFTTRKFEQEITVLSGKSKLDIEYKISIKFVGFISCAEPRFLQVLNLI	failed
MADFVAASGQLGFWTYCLLMIGSVFSGMTLIGVAGLAFTTGYANVWERIIGPPFAIAFGTILIGYKLFNLKDKNGILTIQDYLAFRYDDPKIIRILAGLISAVTCFVYLIGQYTAIGVVSYVVLGIPYWLGAVIAAVIVVAYVMSGGMFSTAWTTFLQSILMLLGIYVTVPFIIAWVGGFEAMNQALAAMPEIQNATRGVAENFMFAKYLSKPFAPASVPLAGWVYNLTLFGITVPLGLMVAPHIVNNMLTFRKIEYTRWGPLVMYVIGFSAIFLTALAGMAARVAWAKGMIDIPSLTLGSIEVKWSDMAYPTIASKALPYWLFVLLLPTILAGVMSTTDRLILTAANNISYDVLRNALGKNLSENALKKVNMLVVPLIGFGSLLIALFPQQLLAWFIWAALSLMTNCFFFPIMLGLYWDRMTKNAARLSMIAGFVVTLATFAIYGKTIYIAGIPAYSVLPGFVASFVLAVGVSLLEKG	failed
